The series concerns Escherichia coli TOP10. Put plainly: shrunken log2 fold change of peptide-encoding DNA abundance (4.5 h post-induction vs induction); higher = less antimicrobial activity (less host growth inhibition). The settings on record: time post-induction: 4.5 h; library: site-saturation at positions 5, 18, 19, 20.
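Further: peptides expressed intracellularly from a pBAD plasmid library in pooled LB shake-flask culture, induced with 0.3% L-arabinose, DNA abundance read by NGS, three biological replicates, DESeq2 with apeglm shrinkage.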

On to RRIRCRPPRLPRPRPRPMCSPRP, for which the “shrunken log2 fold change” value is -0.218.
For RRIRLRPPRLPRPRPRPSSKPRP, the “shrunken log2 fold change” value is -0.524.
Regarding RRIRSRPPRLPRPRPRPMNDPRP, the “shrunken log2 fold change” value is -0.075.
The value for RRIRQRPPRLPRPRPRPHQMPRP was 0.0681; that for RRIRDRPPRLPRPRPRPAMCPRP was 0.531.
The value for RRIRERPPRLPRPRPRPTPHPRP was 0.308; that for RRIRCRPPRLPRPRPRPCWLPRP was -0.0409.
The value for RRIRCRPPRLPRPRPRPWRPPRP was 0.0893; that for RRIRGRPPRLPRPRPRPIFPPRP was 0.553; that for RRIRKRPPRLPRPRPRPMDYPRP was 0.0283.
As for RRIRPRPPRLPRPRPRPYMQPRP, the “shrunken log2 fold change” value was -0.681.
The value for RRIRYRPPRLPRPRPRPEDSPRP was -0.0108; that for RRIRMRPPRLPRPRPRPQLPPRP was -0.105; that for RRIRSRPPRLPRPRPRPVYCPRP was -0.138.
In the case of RRIRHRPPRLPRPRPRPDSDPRP, the “shrunken log2 fold change” value was determined as 0.0112.
The value for RRIRRRPPRLPRPRPRPNAKPRP was 0.0165.
The value for RRIRGRPPRLPRPRPRPERAPRP was 1.4.
The value for RRIRMRPPRLPRPRPRPVPVPRP was 0.364; that for RRIRKRPPRLPRPRPRPVVTPRP was 0.417; that for RRIRHRPPRLPRPRPRPRFLPRP was 0.0768.
Consider RRIRDRPPRLPRPRPRPVQGPRP, for which the “shrunken log2 fold change” value is -0.01.
The value for RRIRFRPPRLPRPRPRPPTTPRP was 0.276; that for RRIRGRPPRLPRPRPRPGAFPRP was 0.773; that for RRIRARPPRLPRPRPRPGQRPRP was 0.107.
Turning to RRIRRRPPRLPRPRPRPVGEPRP, the “shrunken log2 fold change” value was determined as 0.333.
The value for RRIRLRPPRLPRPRPRPISWPRP was 0.0554; that for RRIRERPPRLPRPRPRPWWWPRP was 0.0554; that for RRIRIRPPRLPRPRPRPIKDPRP was -0.467.
The value for RRIRIRPPRLPRPRPRPFRIPRP was -0.103.
The value for RRIRKRPPRLPRPRPRPNEDPRP was -0.00122; that for RRIRVRPPRLPRPRPRPFSHPRP was -0.358.
For the sequence RRIRRRPPRLPRPRPRPRFWPRP, the “shrunken log2 fold change” value came to 0.652.
The value for RRIRFRPPRLPRPRPRPFRKPRP was -0.122; that for RRIRTRPPRLPRPRPRPYFVPRP was -0.258; that for RRIRWRPPRLPRPRPRPFAPPRP was 0.505.
The value for RRIRVRPPRLPRPRPRPLYNPRP was -0.56; that for RRIRCRPPRLPRPRPRPNSNPRP was -0.698.
For the sequence RRIRYRPPRLPRPRPRPPGYPRP, the “shrunken log2 fold change” value came out at 1.43.
On to RRIRFRPPRLPRPRPRPDTWPRP, for which the “shrunken log2 fold change” value was determined as 0.0899.
The value for RRIRMRPPRLPRPRPRPTIMPRP was 0.176; that for RRIRKRPPRLPRPRPRPTDNPRP was 0.219.
The value for RRIRYRPPRLPRPRPRPGGSPRP was -0.017; that for RRIRARPPRLPRPRPRPCNFPRP was -0.478; that for RRIRTRPPRLPRPRPRPCCMPRP was -0.197.
The value for RRIRARPPRLPRPRPRPTWRPRP was 0.813; that for RRIRCRPPRLPRPRPRPLWYPRP was -0.307; that for RRIRCRPPRLPRPRPRPGTYPRP was -0.628.
Turning to RRIRPRPPRLPRPRPRPLNMPRP, the “shrunken log2 fold change” value was -0.432.
The value for RRIRHRPPRLPRPRPRPIQKPRP was -0.00174; that for RRIRCRPPRLPRPRPRPVDGPRP was 0.0228; that for RRIRARPPRLPRPRPRPTMVPRP was -0.0882.
The value for RRIRRRPPRLPRPRPRPKSMPRP was 0.0108.
The value for RRIRDRPPRLPRPRPRPGDSPRP was 0.13.
Consider RRIRSRPPRLPRPRPRPPNKPRP, for which the “shrunken log2 fold change” value is -0.0165.
The value for RRIRQRPPRLPRPRPRPRITPRP was 1.06; that for RRIRTRPPRLPRPRPRPHPEPRP was -0.0834.
The value for RRIRIRPPRLPRPRPRPRKMPRP was 0.142.
The value for RRIRHRPPRLPRPRPRPGTRPRP was -0.13.
For the sequence RRIRCRPPRLPRPRPRPTSCPRP, the “shrunken log2 fold change” value is -0.0641.
For RRIRSRPPRLPRPRPRPRTQPRP, the “shrunken log2 fold change” value was found to be 0.107.
For the sequence RRIRLRPPRLPRPRPRPGEEPRP, the “shrunken log2 fold change” value worked out at 0.143.
The value for RRIRHRPPRLPRPRPRPTKMPRP was 0.0724.
The value for RRIRHRPPRLPRPRPRPWSLPRP was -0.121; that for RRIRFRPPRLPRPRPRPRKWPRP was 0.498.
For RRIRGRPPRLPRPRPRPYMGPRP, the “shrunken log2 fold change” value was -0.00228.
For the sequence RRIRQRPPRLPRPRPRPSQDPRP, the “shrunken log2 fold change” value was -0.0378.
The value for RRIRYRPPRLPRPRPRPTCQPRP was -0.0443.
On to RRIRLRPPRLPRPRPRPQRHPRP, for which the “shrunken log2 fold change” value was -0.0803.
The value for RRIRTRPPRLPRPRPRPSPNPRP was -0.337; that for RRIRFRPPRLPRPRPRPRERPRP was 1.02; that for RRIRNRPPRLPRPRPRPLTDPRP was -0.193.
The value for RRIRKRPPRLPRPRPRPKDTPRP was 0.26; that for RRIRERPPRLPRPRPRPQQRPRP was 0.0285; that for RRIRLRPPRLPRPRPRPVFSPRP was -0.112.
The value for RRIRPRPPRLPRPRPRPFEPPRP was 0.232.
For the sequence RRIRIRPPRLPRPRPRPSSLPRP, the “shrunken log2 fold change” value was -0.713.
The value for RRIRVRPPRLPRPRPRPSQEPRP was -0.549; that for RRIRTRPPRLPRPRPRPPGEPRP was 0.318; that for RRIRIRPPRLPRPRPRPTMFPRP was -0.763.
As for RRIRIRPPRLPRPRPRPHCEPRP, the “shrunken log2 fold change” value was -1.54.
The value for RRIRGRPPRLPRPRPRPEMMPRP was 1.3; that for RRIRHRPPRLPRPRPRPVPQPRP was -0.0725.
Turning to RRIRHRPPRLPRPRPRPHNKPRP, the “shrunken log2 fold change” value was -0.866.
The value for RRIRLRPPRLPRPRPRPDFHPRP was -0.206.
The value for RRIRPRPPRLPRPRPRPDYPPRP was -0.0173; that for RRIRVRPPRLPRPRPRPDPWPRP was 0.131; that for RRIRQRPPRLPRPRPRPVQWPRP was -0.03.
The value for RRIRVRPPRLPRPRPRPWWAPRP was -0.0894.
For the sequence RRIRDRPPRLPRPRPRPHGCPRP, the “shrunken log2 fold change” value is -0.00865.
The value for RRIRGRPPRLPRPRPRPGCAPRP was 1.33; that for RRIRSRPPRLPRPRPRPHTHPRP was -0.419; that for RRIRHRPPRLPRPRPRPKMCPRP was -0.00195.
The value for RRIRERPPRLPRPRPRPNLVPRP was -0.0264; that for RRIRVRPPRLPRPRPRPCTEPRP was -0.167; that for RRIRTRPPRLPRPRPRPAIGPRP was 0.1.
For the sequence RRIRCRPPRLPRPRPRPRFTPRP, the “shrunken log2 fold change” value is 0.066.
For RRIRNRPPRLPRPRPRPPMQPRP, the “shrunken log2 fold change” value was 0.0237.
With RRIRWRPPRLPRPRPRPDIQPRP, the “shrunken log2 fold change” value is 0.27.
With RRIRWRPPRLPRPRPRPSTQPRP, the “shrunken log2 fold change” value was 0.0274.
The value for RRIRFRPPRLPRPRPRPCQTPRP was -0.414.
The value for RRIRRRPPRLPRPRPRPDVRPRP was 0.0483.
The value for RRIRNRPPRLPRPRPRPLEEPRP was 0.216.
In the case of RRIRMRPPRLPRPRPRPRKAPRP, the “shrunken log2 fold change” value was determined as 1.09.
The value for RRIRFRPPRLPRPRPRPYQQPRP was 0.00163.
Turning to RRIRDRPPRLPRPRPRPDPNPRP, the “shrunken log2 fold change” value stood at 0.00812.
The value for RRIRIRPPRLPRPRPRPPHVPRP was -0.265; that for RRIRARPPRLPRPRPRPEHEPRP was 0.00993; that for RRIRIRPPRLPRPRPRPCNAPRP was -0.0751.
With RRIRGRPPRLPRPRPRPLSWPRP, the “shrunken log2 fold change” value turned out to be 0.781.
The value for RRIRARPPRLPRPRPRPSIPPRP was -0.349; that for RRIRPRPPRLPRPRPRPVDNPRP was 0.0523; that for RRIRNRPPRLPRPRPRPKWLPRP was -0.00522.
The value for RRIRCRPPRLPRPRPRPMAGPRP was -0.0712; that for RRIRFRPPRLPRPRPRPNDEPRP was -0.648; that for RRIRGRPPRLPRPRPRPMRSPRP was 0.64.
The value for RRIRSRPPRLPRPRPRPFNKPRP was -0.81.
RRIRHRPPRLPRPRPRPSRPPRP: the “shrunken log2 fold change” value turned out to be 0.323.
Turning to RRIRCRPPRLPRPRPRPLRSPRP, the “shrunken log2 fold change” value stood at 0.482.
The value for RRIRMRPPRLPRPRPRPWALPRP was 0.0536; that for RRIRGRPPRLPRPRPRPLQMPRP was 2.6.
The value for RRIRHRPPRLPRPRPRPRNGPRP was -0.0288; that for RRIRFRPPRLPRPRPRPTNMPRP was -0.712.
The value for RRIRQRPPRLPRPRPRPVVRPRP was 0.169.
As for RRIRVRPPRLPRPRPRPAFYPRP, the “shrunken log2 fold change” value is -0.135.
The value for RRIRFRPPRLPRPRPRPRVQPRP was 0.263.

The values are drawn from the supplement of paper PMC9112550, “Optimization of the antimicrobial peptide Bac7 by deep mutational scanning” (BMC Biology, 2022).
